Here are results for 1 molecule from patent publication US20130190246A1 (PURDUE RESEARCH FOUNDATION, published 2013).

Where no end group is shown, it is not given here. The star is where a group is joined. Dansyl = CN(C)c1cccc2c(S(=O)(=O)*)cccc12

For assay [1], the target named is collagen (type and supplier not stated; Examples 11 and 12). The assay can be described thus: fluorescence plate binding assay, dansyl label, collagen coated on 96-well plate. On the procedure:
(§1) Binding assays were done in a 96-well high-binding plate, black with a clear bottom (Costar). Collagen was compared to untreated wells and BSA coated wells. Collagen and BSA were immobilized at 37° C. for 1 hr by incubating 90 μL/well at concentrations of 2 mg/mL in 10 mM HCl and 1×PBS, respectively. Each well was washed 3× with 1×PBS after incubating. Z-SILY was dissolved in 1×PBS at concentrations from 100 μM to 10 nM in 10-fold dilutions. Wells were incubated for 30 min at 37° C. and rinsed 3× with PBS and then filled with 90 μL of 1×PBS. Fluorescence readings were taken on an M5 Spectramax Spectrophotometer (Molecular Devices) at excitation/emission wavelengths of 335 nm/490 nm respectively.

The target is the same in assay [2]. The assay can be described thus: fluorescence plate assay, collagen-coated wells, binding curve from the data of FIG. 4. As for the experimental part: as §1

B1: Dansyl-GRRANAALKAGELYKSILYGC (Z-SILY) (peptide)
peptide: Dansyl-GRRANAALKAGELYKSILYGC
notes: Fluorescently labelled version of SILY; also called dansyl-modified peptide SILY
Molecule B1 yielded a Kd in assay [1] of 860 nM. Further, the “EC50 (read off the curve)” value in assay [2] is about 900 nM.
